Experimental findings from paper PMC8498466 are described below.

Substrate in the data set: NCCSC[C@H](N)C(=O)O
Nature of the data set: cells, lysate or membranes. To be noted: inside-out membrane vesicles energized with 0.25 mM ATP; 50 mM KCl, 10 mM MgSO4, valinomycin 0.25 uM; Thl 0.5-5 mM; Thl/H+ antiport (export direction).

B1: LysO (LysON-HA) (Escherichia coli K-12) (protein)
chain: MFSGLLIILVPLIVGYLIPLRQQAALKVINQLLSWMVYLILFFMGISLAFLDNLASNLLAILHYSAVSITVILLCNIAALMWLERGLPWRNHHQQEKLPSRIAMALESLKLCGVVVIGFAIGLSGLAFLQHATEASEYTLILLLFLVGIQLRNNGMTLKQIVLNRRGMIVAVVVVVSSLIGGLINAFILDLPINTALAMASGFGWYSLSGILLTESFGPVIGSAAFFNDLARELIAIMLIPGLIRRSRSTALGLCGATSMDFTLPVLQRTGGLDMVPAAIVHGFILSLLVPILIAFFSA
Consider B1, for which the Km turned out to be 1500 µM.
